Consider 1 protein from FireProtDB (doi:10.1093/protein/gzi067).

The conditions of this data set: Bos taurus, pH 7, 25 °C, CD, MOPS 30 mM, reversible: yes (partial), whole UniProt chain shown.

“And” between values parts separate entries of the source, which are not always exact repeats. Identical values can stand only once.

B1: Cytochrome b5 wild type, P00171 (protein)
chain: MAEESSKAVKYYTLEEIQKHNNSKSTWLILHYKVYDLTKFLEEHPGGEEVLREQAGGDATENFEDVGHSTDARELSKTFIIGELHPDDRSKITKPSESIITTIDSNPSWWTNWLIPAISALFVALIYHLYTSEN
For B1, for the setting “GdnHCl”, the “denaturant midpoint (higher = more stable)” value was 1.27 M and the unfolding free energy is 3.2 kcal/mol. Besides, the “denaturant midpoint (higher = more stable)” value (GdnSCN) was 1.52 M and 2.04 M.
